{
  "source": "paper doi:10.1101/2021.02.05.429900",
  "test_in_all_cases": "FRET or BRET",
  "key": {"[1]": {"molecular_target": "Gβ3 with cpVenus-Gγ9 (Gβγ of the G13 BRET sensor) (UniProt P16520)", "sequence (P16520 whole entry, chain 1 of 2)": "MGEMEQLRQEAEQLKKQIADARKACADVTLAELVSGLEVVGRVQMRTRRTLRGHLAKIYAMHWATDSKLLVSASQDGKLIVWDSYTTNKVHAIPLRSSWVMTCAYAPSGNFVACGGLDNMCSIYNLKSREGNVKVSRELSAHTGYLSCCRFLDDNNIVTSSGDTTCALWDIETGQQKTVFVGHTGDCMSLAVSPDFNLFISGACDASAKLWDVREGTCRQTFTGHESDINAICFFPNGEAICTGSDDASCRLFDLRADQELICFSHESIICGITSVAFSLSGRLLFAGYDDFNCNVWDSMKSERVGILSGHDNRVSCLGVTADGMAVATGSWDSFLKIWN", "sequence (O14610 whole entry, chain 2 of 2, further chain)": "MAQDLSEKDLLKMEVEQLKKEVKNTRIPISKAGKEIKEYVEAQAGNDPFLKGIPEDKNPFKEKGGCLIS"}, "[2]": {"molecular_target": "cpVenus-tagged Gβγ of the G15 BRET sensor (UniProt P62873)"}, "[3]": {"molecular_target": "cpVenus-tagged Gβγ of the Gs BRET sensor (UniProt P62873)"}},
  "data": [
    {"substance": "Gα13-Nluc (G13 BRET sensor) (from UniProt Q14344 1-377) (natural protein)", "values": [
      {"measurement": "amplitude of the BRET response (ΔBRET) on agonist activation of TBXA2R", "setting": "[1]", "value": -35, "unit": "%"}
    ]},
    {"substance": "Nluc-tagged Gα15 (G15 BRET sensor) (from UniProt P30679 1-374) (natural protein)", "values": [
      {"measurement": "amplitude of the BRET response (ΔBRET) on agonist activation of TBXA2R", "setting": "[2]", "value": -10, "unit": "%"}
    ]},
    {"substance": "Nluc-tagged Gαs (Gs BRET sensor) (from UniProt P63092 1-394) (natural protein)", "values": [
      {"measurement": "amplitude of the BRET response (ΔBRET) on agonist activation of β2AR", "setting": "[3]", "value": -10, "unit": "%"}
    ]}
  ]
}
